Reference: paper PMC7396438
Where “and” joins values, the source holds several entries; their conditions need not be identical. Identical values can stand only once.

How the values were obtained:
Assay in all cases: cross-linking; in vivo photo-cross-linking in BamA mutant strains (chromosomal bamA replaced; pBpa at 64, at 132, or at both); blot with antibodies against SurA, bands quantified with ImageJ against nonspecific bands as internal control; repeated twice
[1] = target: BamA-R64&D132pBpa (E. coli) (UniProt P0A940)
BamA-R64pBpa (E. coli) = BamA-R64pBpa (E. coli) (UniProt P0A940)
BamA-D132pBpa (E. coli) = BamA-D132pBpa (E. coli) (UniProt P0A940)

SurA, sequence (P0ABZ6 21-428): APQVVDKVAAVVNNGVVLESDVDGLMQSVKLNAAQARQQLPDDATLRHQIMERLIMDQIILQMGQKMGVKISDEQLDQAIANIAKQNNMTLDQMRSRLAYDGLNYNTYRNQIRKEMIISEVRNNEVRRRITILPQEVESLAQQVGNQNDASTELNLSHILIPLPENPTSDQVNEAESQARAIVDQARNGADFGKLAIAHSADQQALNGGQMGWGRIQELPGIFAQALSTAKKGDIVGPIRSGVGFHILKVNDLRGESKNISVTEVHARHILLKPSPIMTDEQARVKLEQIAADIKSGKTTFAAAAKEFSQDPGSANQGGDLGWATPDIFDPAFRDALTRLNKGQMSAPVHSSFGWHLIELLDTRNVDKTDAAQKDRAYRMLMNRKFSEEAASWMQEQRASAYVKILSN

- amount of cross-linked product (ImageJ, against nonspecific bands) [1]: 1 and 1.02
- stoichiometry N [1]: 1
- sum of the amounts of the two cross-linked products (ImageJ) [1]: 2.02
- amount of cross-linked product (ImageJ, against nonspecific bands) (BamA-R64pBpa (E. coli)): 1.97
- amount of cross-linked product (ImageJ, against nonspecific bands) (BamA-D132pBpa (E. coli)): 2.12
Substance: SurA (from UniProt P0ABZ6 21-428) (natural protein)
